Measurements: the DeepSol protein solubility set

Test: soluble on expression in E. coli; label from the status in PepcDB or PDB records

Soluble on expression in E. coli, not soluble:
MGSDKIHHHHHHMGNYQHPGIYVQEIAIAPNIEPVAACLPLFIGHTEKSQDANGHPLPLGKRYSVSSLAEYEEHFGKGAPETLRVLLDGKGNIVNAHSYSPFYLYAAVHQYFANGGGQCEILSVGPYSRAPDASALKAAIRALPLNAAFTLVAIPDAVSLAELPQLQRKLLQYCAQQDYCLAILDVPYCNDQTREMTVNTFRHDIGQRGLQHGAAFMPWLETAAAGISGYVDLEIKYTPGVATAWNDFHKATKLQSHLLHKQLEASPAIRFNRMLPPSGSIMALFEANARKRNIWTTPNHTPIKEIISLSATIDNIIQESLNIHPTGKSINAIRRFDNALLMWGGHTLASNDSEWRYIAHLLTRGFVQASLRRFLDQQTFEKNDEATWSLVGHQCQDFLHTLWREGALVGDKPEQAFYVRIGLNQTMSTQDIAAGRIIVHVGIALLRPAEFIILKLHKVISAPDLKPAITRPGKPVNRVKIRAKTSPINVVIRQRQQPSPPSKPLPSEPVS, MGSDKIHHHHHHMGRAPTMEADMRILLLCWRDTTHPQGGGSERYLEHIAKYLVASGHEVIFRTARHTDASRRAVRDGVEYQYAGGKYSVYVRAAVAQLMGRLGVGRLRGVDVAVDTQNGIPFFARVFSGVPTILLTHHCHRRQWDVAGPLIARLGWFIESKVSPWVHRGVRYVTVSEPSRDELVELGVPAGNITIVRNGIDDPPAPMNLPPVTRPHLVTLSRLVPHKQIEHAIDVVRELDGVVLDIIGSGWWEPQLREYARDVADRVIFHGQVAEDHKHALLAQAAVHVMPSRKEGWGLAVIEAGQHGVPTVGYSHSGGLRDSVRGGGVLVETPAQLTCAIRQLLADQRYRDELGRRAYGFASTFSWEDTGREFLRVIAQPQIPAAAHSTKQPNPR, MGSDKIHHHHHHMGTKKNFVLDTNVILHDYNCLKNFQENDIYLPIVVLEELDKFKKGNEQINYNAREFVRELDLITDDSLFTHGAPLGEGLGKLFIVTGDSEAPKVHESFPARKPDHQILAVAEYLARKYPKMKNILVTKDVNLRMKARSIGILCEDYITDKVVNVDIFEKSNEVFENIEPDLIDRIYSSREGLDISEFDFKDIIRPNECFILKSDRSSVLARYNPFTHTVCRVNKTKNYGIEPRNAEQSFAFEILNDPDIKLVALTGKAGTGKTLLALAAALGKLTEYKQILLARPIVALSNKDLGFLPGDATEKVAPYMQPLFDNLNVIKRQFASNSTEVKRLEDMQKSEQLVIEALAFIRGRSLSETYCIIDEAQNLTPHEIKTIITRAGEGTKMVFTGDIQQIDQPYLDSQSNGLVYMIDRMKDQNLFAHVNLVKGERSELSELASNLM, MGSDKIHHHHHHMHFYRSLGPIRAITFDLDDTLYDNADVIRRTGQESIRFLQEYHPALRDFQADDFQNLRQTLLEREPDIYHDVTEWRRRAVELAMLDRGLSAAESKDGAKAAMENFAHWRSQIAITEETHQTLAALAEKVPLAAITNGNAEPHRFGLERYFSFILRAGPHGRAKPFDDMYHLAAEKLNLPLHEILHVGDDLTTDVAGSIRCGMQACWINLREGSLTQIGDARLLPHIEISRLASLSALL, MGSDKIHHHHHHMHHSHHLEIYEKLREKLNKAPIGLPKTVSGVEKELLSVLFDEEEAKIAVHMPFIRFTAEQLAERTGKSLEYVEKILNEMAKKGTVWKGEKDGQTYYRLFPVIVGFAETPFWPGPGKDPRQEKLARLWSQYRKEGFLDEIGDREHPIMRALPERDTISEKSEILPYEDAVKLVKERDYIAVGYCPCRVMARLVGEGCRHSIENCIHMGSVGKYMVEHGLGRRISADEAIEILRQSNREGLVHLTERSKHVATICNCCSDCCVFFKAVHEAKHPNTIAHSSYLATVDTSRCIACGICMLRCPMKAIKAKINREPASVDAEKCLGCGVCVPTCPMEAIELVERDELLELPDGMTYVQELLADKGRDPSGLF, MGSDKIHHHHHHMHIVDVTMFYAPASGGVRTYLQAKREILSQVPGLRTSLLVPGAERDSLGNHHTLPALRLPLGQGYRFPLRARLWRDALGALAPDIIEAGDPYVTAWAALDASQRLGVPVVGFYHSDLPRLMGDRFGRQVGRRLERYVVNLYRRFDSVLAPCQAMADRLRDWGIDQVRVQPLGVDLQRFHPSCKDPALREELGLAPETRLLVFIGRNSREKNIDILLATMKRLGNGYHLLLIGPGMPRQVPANVTSFDRCCGIYEVARVLASSDAMLHAGTRETFGLIAQEAMASGIPVVGAKAGALKENVPLGAGILCRPLDPEAMADACQSLFRNDVVASGRYARRYVELHFSWESAMKNLLEHYRQLCASSELHVIPQKA
